Consider three molecules from US20160215299, “EXPRESSION METHOD OF ACTIVE GOLDFISH TGF2 TRANSPOSON RECOMBINANT TRANSPOSASE PROTEIN” (Shanghai Ocean University, published 2016).

The test system of data set [1] is T1, gfTP1 transposase (Tgf2 transposase, 686 aa, recombinant 720 aa) (Carassius auratus).
T1 sequence: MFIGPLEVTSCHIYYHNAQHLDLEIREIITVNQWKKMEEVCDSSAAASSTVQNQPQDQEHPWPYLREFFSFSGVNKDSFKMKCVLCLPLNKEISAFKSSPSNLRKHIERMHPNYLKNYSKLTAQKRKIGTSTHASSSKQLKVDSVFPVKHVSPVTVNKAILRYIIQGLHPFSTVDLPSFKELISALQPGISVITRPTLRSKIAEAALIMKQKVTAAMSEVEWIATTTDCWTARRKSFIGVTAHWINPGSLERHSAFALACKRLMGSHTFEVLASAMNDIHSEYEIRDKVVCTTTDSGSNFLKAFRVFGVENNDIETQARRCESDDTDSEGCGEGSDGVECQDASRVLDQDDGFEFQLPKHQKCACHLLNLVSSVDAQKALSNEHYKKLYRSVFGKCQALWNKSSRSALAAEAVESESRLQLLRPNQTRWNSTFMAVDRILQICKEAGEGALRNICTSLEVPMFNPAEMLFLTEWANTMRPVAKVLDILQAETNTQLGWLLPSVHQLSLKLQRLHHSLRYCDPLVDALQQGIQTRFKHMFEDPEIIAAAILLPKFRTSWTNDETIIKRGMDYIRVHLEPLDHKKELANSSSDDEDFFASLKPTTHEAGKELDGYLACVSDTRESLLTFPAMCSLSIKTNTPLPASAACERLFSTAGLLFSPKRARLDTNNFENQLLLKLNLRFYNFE
As to the kind of experiment: cell_activity. Particulars: genomic integration rate in one-year-old blunt snout bream (35/77) vs 10% with donor plasmid only; 8-bp direct repeats at insertion sites.

The target of data set [2] is T2, gfTP1 transposase (Tgf2 transposase, 686 aa, recombinant 720 aa) (Carassius auratus).
T2 chain: T1 sequence
Nature of the data set: EMSA; 25 C, 0.5-1 h; 1x protein shifts probe, 10x gives slower complex (oligomer); control cold probe no signal. To be noted: tags: N-terminal 34 aa His6-containing tag from pET-28a, E. coli Rosetta 1(DE3); label: biotin. The procedure: The 50 by sequences of left and right ends of goldfish Tgf2 transposon labeled by biotin were used as probes. The DNA binding activity was verified by EMSA, using non-denaturing polyacrylamide gel electrophoresis at 80 V for 1.0 h. Lane 1: biotin-labeled probes based on left (or right) end; Lane 2: the supernatant of cells without IPTG induction; Lane 3: co-incubation complex of biotin-labeled cold probes for control and the purified recombinant goldfish gfTP1 transposase; Lane 4: co-incubation complex of biotin-labeled probes based on Tgf2 left (or right) end and the purified 1× recombinant goldfish gfTP1 transposase; Lane 5: co-incubation complex of biotin-labeled probes based on Tgf2 left (or right) end and the purified 10× recombinant goldfish gfTP1 transposase.

Turning to donor plasmid pTgf2-zfβ-actin-eGFP, the activity in data set [1] came out at 45%.

B1: Tgf2 left end 50 bp probe (dsDNA)
DNA 1: CAGAGGTGTAAAAGTACTTAAGTAATTTTACTTGATTACTGTACTTAAGT
DNA 2: ACTTAAGTACAGTAATCAAGTAAAATTACTTAAGTACTTTTACACCTCTG
In the case of B1, in data set [2], the binding result is reported as “binds”.

B2: Tgf2 right end 50 bp probe (dsDNA)
DNA 1: CAGAGGTGTAAAAGTACTAAAAATATTTACTAAAGTGAAAGTACAAGTAT
DNA 2: ATACTTGTACTTTCACTTTAGTAAATATTTTTAGTACTTTTACACCTCTG
Regarding B2, in data set [2], the binding result was “binds”.
